Assay [1] addresses T1, human pulmonary SP-A protein in human lung tissue (Homo sapiens, endogenous lung tissue, UniProt Q8IWL2).
Assay [2] has as its target T2, recombinant human SP-A protein (pulmonary surfactant protein A) (Homo sapiens, UniProt Q8IWL2).
T2 construct: human pulmonary surfactant protein A; gene provided by Shanghai YouLong Biotech; About 41 kDa on SDS-PAGE, which would fit a fusion with the carrier of the pET32 vector; also called purified recombinant SP-A; PET32-SPA; source: E. coli BL21 (PET32-SPA), purified
The experiment in a line: BLI; ForteBio's Octet System; Nb4 and purified recombinant human SP-A; who was immobilised is not stated. The settings on record: both partners purified. (Biolayer interferometry detects binding as a change in optical thickness at a sensor tip.)

Assay [3] concerns the target T1, human pulmonary SP-A protein in human …. The experiment in a line: far-Western, overlay or dot blot; human lung tissue homogenate proteins separated by SDS-PAGE, transferred to a PVDF membrane and probed with Nb4 overnight at 4 °C; detected with anti-His-HRP. Conditions: one partner purified.
For assay [4], the target named is T3, SP-A in human lung epithelial A549 cells (Homo sapiens, endogenous in A549 cells, UniProt Q8IWL2).
T3 construct: human pulmonary surfactant protein A, endogenous in A549 cells; source: endogenous, A549 cells, fixed
The experiment in a line: immunostaining of cells or tissue; fixed A549, L-02 and 293T cells stained with Nb4-FITC; confocal microscopy. Conditions: one partner purified.

By Kd is commonly meant a measure of binding affinity in units of concentration.

Read-outs that look alike come from different tables or passages of the source.

T1 sequence (Q8IWL2 21-248): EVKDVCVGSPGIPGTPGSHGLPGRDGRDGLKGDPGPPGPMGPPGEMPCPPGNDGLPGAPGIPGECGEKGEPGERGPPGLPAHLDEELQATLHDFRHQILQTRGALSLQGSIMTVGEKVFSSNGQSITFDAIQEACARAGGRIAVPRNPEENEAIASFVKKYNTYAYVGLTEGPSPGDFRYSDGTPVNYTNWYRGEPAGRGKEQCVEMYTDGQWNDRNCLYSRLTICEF
T3 sequence (Q8IWL2 21-248): as above
T2 sequence (Q8IWL2 21-248): as above

B1: Nb15 (VHH)
VHH: QLQLVESGGGLVQPGGSLSVSCAVRGRDLDYYVIGWFRQAPGKEREGVSCINNSDDTTYYSDSVKGRFTISRDHAKNTVYLQMNNLKPEDTALYYCAADFDRLDFTVKAMCVMKFFYYWGQGTQVTVSS
As for B1, in assay [1], the binding result is given as “binds”.

B2: Nb43 (VHH)
VHH: QLQLVESGGGLVQSGGSLRLSCAASGFTFNDYRMSWVRQAPGKGLEWVSDINSGGSSTYYADSVKGRFTVSRDNAKNTLYLQMNSLKPEDTAIYYCVALLGRGCSGLVQGAFGPWGQGTQVTVSS
B2: the binding result in assay [1] was “binds”.

B3: Nb4 (anti-human pulmonary SP-A nanobody) (VHH)
VHH: QLQLVESGGGLVQPGGSLRLSCAASEFTLDYYEIGWFRQAPGKDREGLSCIGYSDRIAYYSESVKGRFTTVRDDATSTVSLYMDMMIPEDTGTYYCAGSVVEPYELLPAAEYDYWGQGTRVTVSS
notes: About 19 kDa on SDS-PAGE; also called Nb4-His; source: E. coli BL21 (pET-26b (+)-VHH), purified
For the molecule B3, the Kd in assay [2] is 748 nM. In addition, the binding result in assay [3] is on record as “binds”.

B4: Nb4-FITC (VHH)
VHH: QLQLVESGGGLVQPGGSLRLSCAASEFTLDYYEIGWFRQAPGKDREGLSCIGYSDRIAYYSESVKGRFTTVRDDATSTVSLYMDMMIPEDTGTYYCAGSVVEPYELLPAAEYDYWGQGTRVTVSS
notes: as the VHH chain of m1; Same nanobody as m1, with a FITC label; also called Nb4 labeled with FITC; source: E. coli BL21 (pET-26b (+)-VHH), purified, labeled with FITC
Take B4: in assay [4], the binding result is “binds”.

B5: Nb17 (VHH)
VHH: QLQLVESGGGLVQPGGSLRLACAASGFNLDDYADIGWFRQAPGKERERVLCITISDGTTYYEDSGKGRFSISTDIAKNTVFLQMDSLKAEDTAVYYCAGDPAPFCLYNTYVPRTWGQGTQVTVSS
Take B5: the binding result in assay [1] is given as “binds”.

B6: Nb6 (VHH)
VHH: QLQLVESGGDLAQPGGSLTLSCTASGTFKIYSMGWYRRPQRELVAEMLNGGDTQYSDSVKGRFTISRTNNTMYLHMNNLKPEDTAVYYCNLQDWYSEPAGDYWGPGTQVTVSS
For B6, the binding result in assay [1] was “binds”.

B7: Nb11 (VHH)
VHH: QLQLVESGGGLVQPGGSLRLSCTASKFHLDSYAVAWFRQTPGKEREAVSFINTSDDVTYFADSVKGRFTISRDNSKNTVYLQMNVLKPEDTSIYVCAAVRSPGPTGPSMQPMWSVPDLYDYWGQGTQVTVSS
Take B7: the binding result in assay [1] is on record as “binds”.

B8: Nb29 (VHH)
VHH: QVKLVESGGGSVQAGGSLRLSCTASGSDYRWMYIARFRQCPGKEREGVAAIYTDDTDDSSPIYATSAKGRFTISQDKDKNAVYLQMNSPKPEDTAMYYCAARAFGGTWSLSSPDDFSAWGQGTQVTVSS
As to B8, the binding result in assay [1] was “binds”.

B9: Nb38 (VHH)
VHH: QVKLVESGGGSVQAGGSLILSCTASGSDYRWMYIARFRQCPGKEREGVAAIYTDDTDDSSPIYATSAKGRFTISQDKDKNAVYLQMNSPKPEDTAMYYCAARAFGGTWSLSSPDDFSAWGQGTQVTVSS
Take B9: the binding result in assay [1] is “binds”.

(Values after article PMC5431231, “Identification of a nanobody specific to human pulmonary surfactant protein A” (Scientific Reports, 2017).)
